Publication PMC11260453

What was measured:
OC2 DNA-binding domain [1] = target: T1, OC2 DNA-binding domain (UniProt O95948 330-485); assay: SPR
T1 sequence: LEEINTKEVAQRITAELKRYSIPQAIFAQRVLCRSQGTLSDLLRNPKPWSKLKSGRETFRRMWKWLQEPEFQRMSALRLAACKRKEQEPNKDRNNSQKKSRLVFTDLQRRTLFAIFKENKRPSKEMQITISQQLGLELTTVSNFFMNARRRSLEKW

OC2 DNA-binding domain [2] = target: T1, OC2 DNA-binding domain; assay: SPR; remark: listed apart in the source

B1: UGT2B15 promoter 20 bp mutant (dsDNA)
DNA 1: TAACTTGGCTGTCTTTTCCT
DNA 2: AGGAAAAGACAGCCAAGTTA
B1: no binding (OC2 DNA-binding domain [1]).

B2: UGT2B15 promoter 20 bp WT (dsDNA)
DNA 1: TAACTTGATTGATTTTTCCT
DNA 2: AGGAAAAATCAATCAAGTTA
For B2, the Kd (OC2 DNA-binding domain [2]) was 1.13 ± 0.01 nM.
